Biological target: sumf1_human SUMF1 (UniProt Q8NBK3)
Sequence (Q8NBK3 whole entry): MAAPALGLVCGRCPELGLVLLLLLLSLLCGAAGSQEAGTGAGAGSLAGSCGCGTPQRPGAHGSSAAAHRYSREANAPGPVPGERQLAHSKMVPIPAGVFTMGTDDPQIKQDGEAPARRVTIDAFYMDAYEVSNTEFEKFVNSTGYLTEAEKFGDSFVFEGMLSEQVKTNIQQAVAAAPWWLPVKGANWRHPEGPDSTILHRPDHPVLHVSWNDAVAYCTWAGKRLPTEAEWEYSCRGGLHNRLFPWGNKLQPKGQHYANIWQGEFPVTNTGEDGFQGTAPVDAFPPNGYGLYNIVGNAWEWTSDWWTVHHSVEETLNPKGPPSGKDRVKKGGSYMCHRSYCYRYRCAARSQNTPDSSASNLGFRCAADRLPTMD

Inactive C-alpha-formylglycine-generating enzyme 2 (Homo sapiens), Q8NBJ7 C156A;C290A
effect of a mutation on the interaction: disrupting interaction strength
